The source of these data is article PMC3900769 (Journal of molecular biology, 2009).

Series [1] concerns the target HPV11 MBP-E6 4C/4S (human papillomavirus type 11) (UniProt P04019). In words: SEC. In general terms: In gel filtration, larger molecules generally elute earlier.
The target in series [2] is HPV11 E6 4C/4S separated from the MBP tag (human papillomavirus type 11) (UniProt P04019). Put plainly: SEC.
The target in series [3] is E6AP peptide (Homo sapiens) (UniProt Q05086). Put plainly: SPR. The conditions noted are these: cited from earlier work.
Series [4] deals with the molecule itself. In words: SEC.

Where “and” joins values, the source holds several entries; their conditions need not be identical. Equal values may be shown once.

Sequence of E6AP peptide (Homo sapiens) (Q05086 whole entry): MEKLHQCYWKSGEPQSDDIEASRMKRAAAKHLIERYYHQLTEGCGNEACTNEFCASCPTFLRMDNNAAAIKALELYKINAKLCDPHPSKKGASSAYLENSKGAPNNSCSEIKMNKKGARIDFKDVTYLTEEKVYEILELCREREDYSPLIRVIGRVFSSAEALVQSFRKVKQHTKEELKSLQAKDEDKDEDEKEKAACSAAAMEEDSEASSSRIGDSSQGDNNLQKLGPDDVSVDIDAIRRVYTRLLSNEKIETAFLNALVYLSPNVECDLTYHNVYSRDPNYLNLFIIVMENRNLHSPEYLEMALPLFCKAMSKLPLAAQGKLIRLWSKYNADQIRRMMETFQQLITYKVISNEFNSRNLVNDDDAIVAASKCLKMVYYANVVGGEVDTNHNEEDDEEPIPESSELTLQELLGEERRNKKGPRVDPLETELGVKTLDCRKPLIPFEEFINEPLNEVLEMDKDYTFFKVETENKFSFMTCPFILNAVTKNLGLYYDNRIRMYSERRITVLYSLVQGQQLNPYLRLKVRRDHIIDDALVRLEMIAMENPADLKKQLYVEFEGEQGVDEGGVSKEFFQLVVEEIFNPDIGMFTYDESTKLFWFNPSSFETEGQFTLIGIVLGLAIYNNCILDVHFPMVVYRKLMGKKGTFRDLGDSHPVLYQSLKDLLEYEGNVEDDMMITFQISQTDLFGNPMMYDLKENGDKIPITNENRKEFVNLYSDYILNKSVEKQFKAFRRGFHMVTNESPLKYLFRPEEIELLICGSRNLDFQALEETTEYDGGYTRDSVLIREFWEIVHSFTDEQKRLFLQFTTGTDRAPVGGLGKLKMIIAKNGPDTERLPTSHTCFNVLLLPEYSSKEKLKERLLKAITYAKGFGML

As usually defined, the stoichiometry N is the number of molecules, sites or subunits per partner or assembly. As to “HPV11 MBP-E6 4C/4S (from UniProt P04019 1-150) (natural protein)”, the stoichiometry N in series [1] is 2 and 3.

With “HPV11 E6 4C/4S separated from the MBP tag (from UniProt P04019 1-150) (natural protein)”, the stoichiometry N in series [2] was 3 and 2.

A word on the Kd: it is a measure of binding affinity in units of concentration. Consider HPV18 E6 (from UniProt P06463), for which the Kd in series [3] is 30 µM.

B1: wild-type HPV11 MBP-E6 (natural protein)
chain: MESKDASTSATSIDQLCKTFNLSLHTLQIQCVFCRNALTTAEIYAYAYKNLKVVWRDNFPFAACACCLELQGKINQYRHFNYAAYAPTVEEETNEDILKVLIRCYLCHKPLCEIEKLKHILGKARFIKLNNQWKGRCLHCWTTCMEDLLP
In the case of B1, in series [4], the “stoichiometry N” value was 2.

B2: wild-type BPV1 MBP-E6 (natural protein)
chain: MDLKPFARTNPFSGLDCLWCREPLTEVDAFRCMVKDFHVVIREGCRYGACTICLENCLATERRLWQGVPVTGEEAELLHGKTLDRLCIRCCYCGGKLTKNEKHRHVLFNEPFCKTRANIIRGRCYDCCRHGSRSKYP
Regarding B2, the binding result in series [4] is listed as “binds”.
